Experimental data as given in paper PMC7658014.

Biological target: T1, His6-OpaR (Vibrio parahaemolyticus (VP93?)) (UniProt Q79YV4)
T1 sequence: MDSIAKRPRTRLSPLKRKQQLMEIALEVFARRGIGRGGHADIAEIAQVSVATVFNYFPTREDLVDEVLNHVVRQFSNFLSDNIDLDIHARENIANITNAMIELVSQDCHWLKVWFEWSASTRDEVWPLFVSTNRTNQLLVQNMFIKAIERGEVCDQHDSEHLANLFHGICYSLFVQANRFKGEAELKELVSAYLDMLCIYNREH
Experiment: EMSA
Conditions: EMSA: 0.4 ng probe, 20 uL of 100 mM HEPES pH 7.6, 5 mM EDTA, 50 mM (NH4)2SO4, 5 mM DTT, 1% Tween 20, 150 mM KCl, 25 C, 30 min; footprinting: 75 ng probe, DIG …

| Sequence | binding |
| --- | --- |
| GCGCCAAAATGGCATAGAAAGGTGAAGAATAGCATTACATTGAAAAATAACAAAAGGGCAGTGCGTGATCGCACTGCCCTTTTAATAATCAGATTGATAGTAAGATTAACTCTTCGAGCTTTATCACCAAGAGTGATGAATCAATCG (double strand) [degS P1] | binds |
| GGTTTATCCTATAAATTGCGGATATTTTAAGAAATTAATATTCATTAAATTGATAACTGGCGACGGATCTTTATGATGACGGTTGATATGCCGATAGAGCACTCATTAGCCAGT (double strand) [lytM P1] | binds |
